The record followed here is the Immune Epitope Database (IEDB).

One assay addresses HLA-A*02:03. Put plainly: IEDB peptide-MHC binding, purified MHC/competitive/fluorescence; filed as Kd, often an IC50 or EC50 that approximates it; ≥ and ≤ were set here for values at or beyond the usual limits of such assays.
The target of a further assay is HLA-A*02:06. The assay is described as above.
The target of assay [1] is HLA-A*02:11. The description is as above.
Assay [2] deals with HLA-A*02:12. The assay is described as above.
Assay [3] concerns the target HLA-A*69:01. Put plainly: IEDB peptide-MHC binding, purified MHC/direct/fluorescence; filed as Kd, often an IC50 or EC50 that approximates it; ≥ and ≤ were set here for values at or beyond the usual limits of such assays.
The target of assay [4] is HLA-A*02:01. The description is as above.
Assay [5] has as its target HLA-B*15:01. The assay is described as above. The conditions noted are these: source organism: Haemophilus influenzae.
The next assay deals with HLA-B*58:01. Described as above.
Another assay has as its target HLA-B*08:01. Put plainly: IEDB peptide-MHC binding, purified MHC/competitive/fluorescence; ≥ and ≤ were set here for values at or beyond the usual limits of such assays.
In another assay the target is HLA-A*24:02. The description is as above.
The target in assay [6] is HLA-A*03:01. The description is as above. The conditions noted are these: source organism: Vaccinia virus Copenhagen.
Assay [7] addresses HLA-A*11:01. The description is as above. The conditions noted are these: source organism: Vaccinia virus Copenhagen.
Assay [8] addresses HLA-A*69:01. The experiment in a line: IEDB peptide-MHC binding, purified MHC/competitive/fluorescence; filed as Kd, often an IC50 or EC50 that approximates it; ≥ and ≤ were set here for values at or beyond the usual limits of such assays. The note with it: source organism: Human immunodeficiency virus 1.
For a further assay, the target named is HLA-A*02:16. The description is as above. The note with it: source organism: Human immunodeficiency virus 1.
Assay [9] deals with HLA-A*02:01. Described as above. The note with it: source organism: Human immunodeficiency virus 1.
The target of another assay is HLA-A*02:19. The description is as above. The conditions noted are these: source organism: Human immunodeficiency virus 1.
The next assay addresses HLA-A*30:01. The assay is described as above.
A further assay concerns the target HLA-B*18:01. The assay is described as above. The note with it: source organism: Human immunodeficiency virus 1.
The target of another assay is HLA-A*26:02. Described as above. The conditions noted are these: source organism: Human immunodeficiency virus 1.
The target of assay [10] is HLA-B*15:01. The assay is described as above.
Assay [11] addresses HLA-A*01:01. The description is as above. The note with it: source organism: Human immunodeficiency virus 1.
The target of another assay is HLA-B*15:17. Described as above.
The target in assay [12] is HLA-A*11:01. The assay is described as above. The note with it: source organism: Human immunodeficiency virus 1.
In assay [13] the target is HLA-B*15:01. The experiment in a line: IEDB peptide-MHC binding, purified MHC/competitive/fluorescence; ≥ and ≤ were set here for values at or beyond the usual limits of such assays. The note with it: source organism: Vaccinia virus.
For assay [14], the target named is HLA-A*02:11. The experiment in a line: IEDB peptide-MHC binding, purified MHC/direct/fluorescence; filed as Kd, often an IC50 or EC50 that approximates it; ≥ and ≤ were set here for values at or beyond the usual limits of such assays. The conditions noted are these: source organism: Orthohantavirus hantanense.
Assay [15] deals with HLA-A*02:12. Described as above. The note with it: source organism: Orthohantavirus hantanense.
For assay [16], the target named is HLA-B*27:05. The experiment in a line: IEDB peptide-MHC binding, purified MHC/competitive/fluorescence; filed as Kd, often an IC50 or EC50 that approximates it; ≥ and ≤ were set here for values at or beyond the usual limits of such assays.
The target of a further assay is HLA-A*32:01. The experiment in a line: IEDB peptide-MHC binding, purified MHC/competitive/radioactivity; filed as Kd, often an IC50 or EC50 that approximates it; ≥ and ≤ were set here for values at or beyond the usual limits of such assays. The note with it: source organism: Vaccinia virus WR.
A further assay deals with HLA-B*35:01. Put plainly: IEDB peptide-MHC binding, purified MHC/competitive/fluorescence; filed as Kd, often an IC50 or EC50 that approximates it; ≥ and ≤ were set here for values at or beyond the usual limits of such assays. The note with it: source organism: Vaccinia virus WR.
A further assay deals with HLA-B*57:01. Described as above. The conditions noted are these: source organism: Vaccinia virus WR.
In assay [17] the target is HLA-A*03:01. The assay is described as above. The note with it: source organism: Vaccinia virus WR.
In a further assay the target is HLA-B*40:01. Put plainly: IEDB peptide-MHC binding, purified MHC/direct/fluorescence; filed as Kd, often an IC50 or EC50 that approximates it; ≥ and ≤ were set here for values at or beyond the usual limits of such assays. The note with it: source organism: Camelpox virus M-96.
A further assay deals with HLA-A*26:01. The assay is described as above. The conditions noted are these: source organism: Camelpox virus M-96.
The target of another assay is HLA-A*31:01. The assay is described as above. The conditions noted are these: source organism: Camelpox virus M-96.
The next assay has as its target HLA-B*08:02. Described as above. The note with it: source organism: Variola virus.
Another assay addresses HLA-B*48:01. The description is as above. The conditions noted are these: source organism: Camelpox virus M-96.
Assay [18] addresses HLA-A*01:01. Described as above. The conditions noted are these: source organism: Camelpox virus M-96.
Assay [19] addresses HLA-B*27:05. Described as above. The note with it: source organism: Camelpox virus M-96.
The target of assay [20] is HLA-A*11:01. Described as above. The note with it: source organism: Variola virus.
Setting [21] is: source organism: Haemophilus influenzae 3655.
The mark [22] stands for this setting: source organism: Haemophilus influenzae.
Setting [23] is: source organism: Vaccinia virus WR.
Setting [24] is: source organism: Vaccinia virus Copenhagen.
The mark [25] stands for this setting: source organism: Human immunodeficiency virus 1.
Setting [26] is: source organism: Vaccinia virus.
[27] abbreviates: source organism: Camelpox virus M-96.

For the sequence LMTAISQGI, the Kd (usually the free concentration of one partner at which half of the binding sites on the other are occupied at equilibrium, for simple one-to-one binding) with HLA-A*02:03 (setting [21]) is not above 0.0001 µM; with HLA-A*02:06 (setting [21]), not above 0.0001 µM; with HLA-A*02:11 [1] (setting [21]), not above 0.0001 µM; in the assay with HLA-A*02:12 [2] (setting [21]), 0.00115 µM; with HLA-A*69:01 [3] (setting [22]), 1.72 µM; with HLA-A*02:01 [4] (setting [22]) it was 0.0295 µM. For the same sequence, the Kd with HLA-B*15:01 [5] worked out at 2 µM; with HLA-B*58:01 (setting [22]), 0.367 µM.
Take TRVLKPSVI: the IC50 (commonly the concentration at which inhibition is half-maximal) with HLA-B*08:01 (setting [23]) was not below 187 µM.
As to ITFALKKLI, the IC50 was not below 210 µM with HLA-B*08:01 (setting [24]), 2.3 µM with HLA-A*24:02 (setting [24]), 60.8 µM in the assay with HLA-A*03:01 [6] and 57.7 µM with HLA-A*11:01 [7].
Take GLGQHIYET: the Kd with HLA-A*69:01 [8] was not below 20 µM; with HLA-A*02:16, 0.00203 µM; with HLA-A*02:01 [9], 3.68 µM; in the assay with HLA-A*02:03 (setting [25]) it was 0.041 µM; with HLA-A*02:06 (setting [25]), 0.119 µM; with HLA-A*02:11 [1] (setting [25]), 0.00955 µM. Besides, the Kd with HLA-A*02:12 [2] (setting [25]) is 0.0755 µM; with HLA-A*02:19, 0.771 µM.
For the sequence RSLFNTIAVLY, the Kd is not below 20 µM in the assay with HLA-A*30:01 (setting [25]); 1.49 µM with HLA-B*18:01; 0.356 µM with HLA-A*02:03 (setting [25]); 1.35 µM in the assay with HLA-A*26:02; 0.676 µM in the assay with HLA-A*02:06 (setting [25]); 3.66 µM with HLA-B*15:01 [10] (setting [25]). The Kd with HLA-A*01:01 [11] was not below 20 µM; in the assay with HLA-B*15:17 (setting [25]) it was 0.0923 µM; with HLA-A*11:01 [12], not below 20 µM.
Turning to YSKDSRNKL, the IC50 in the assay with HLA-B*08:01 (setting [26]) was not below 77.1 µM; with HLA-A*24:02 (setting [26]) it was 19.7 µM; in the assay with HLA-B*15:01 [13] it was not below 255 µM.
On to WLIEPCKLL, for which the Kd in the assay with HLA-A*02:01 [4] (source organism: Orthohantavirus hantanense) worked out at 0.0243 µM; in the assay with HLA-A*02:11 [14], 0.005 µM; with HLA-A*02:12 [15] it was 0.139 µM.
Take KRYLQAKSE: the Kd with HLA-B*27:05 [16] (source organism: Escherichia coli 536) was 0.114 µM.
For the sequence NRYGLPEKM, the Kd with HLA-B*27:05 [16] (source organism: Bacillus anthracis str. A0488) is 0.0175 µM.
Regarding ITMVNSLTY, the Kd with HLA-A*32:01 was 0.0957 µM; with HLA-B*35:01, 0.29 µM; with HLA-B*57:01, 0.257 µM; with HLA-A*30:01 (setting [23]) it was not below 20 µM; with HLA-A*03:01 [17] it was 0.039 µM; with HLA-B*15:01 [10] (setting [23]), 0.228 µM. Moreover, the Kd with HLA-B*15:17 (setting [23]) was 0.0041 µM; in the assay with HLA-B*40:01, not below 20 µM; with HLA-A*69:01 [3] (setting [27]) it was not below 20 µM; with HLA-A*02:01 [4] (setting [27]), not below 20 µM; in the assay with HLA-A*26:01, 0.258 µM; with HLA-A*31:01, not below 20 µM. Further, the Kd in the assay with HLA-B*08:02 was not below 20 µM; with HLA-B*48:01 it was not below 20 µM; with HLA-A*01:01 [18], 0.0371 µM; with HLA-B*27:05 [19] it was not below 20 µM; with HLA-B*58:01 (source organism: Variola virus), 0.013 µM; in the assay with HLA-A*11:01 [20], 0.012 µM.
As to DIKASNIVL, in the assay with HLA-B*08:01 (setting [23]), the half-maximal inhibitory concentration (IC50) is not below 266 µM.
Sequence YRIWLEQNK yielded a Kd in the assay with HLA-B*27:05 [16] (source organism: Mycobacterium tuberculosis C) of 0.0825 µM.
In the assay with HLA-B*27:05 [16] (source organism: Mycobacterium tuberculosis variant bovis BCG str. Pasteur 1173P2), GRAGVVPRY showed a Kd of 0.23 µM.
